# In patent US20250352659A1, “SELF-STABILIZING LINKER CONJUGATES” (priority 2023, published 2025):
# Read-outs that look alike come from different tables or passages of the source.
# Assays:
# Format in all cases: physicochemical
# [1] = Conjugator-antibody conjugate maleimide hydrolysis (ring opening) kinetics by reduced LCMS; settings: for half-life: buffer; for RO Completed Time (>95%): time for the maleimide ring to open in more than 95% of the conjugators
# Method: After the conjugation step, the ADC (or conjugator-antibody conjugate) was subjected to buffer exchange into ring opening buffer (pH 6.5˜9.0, PBS, borate or tris buffer) and the solution was left at 22 or 37° C. for 1˜48 h. The maleimide ring opening process was monitored via reduced LCMS. Once the conjugated maleimide hydrolysis was completed, the resulting ADCs were buffer exchanged into basic tris pH 8.0-8.5 buffer or acidic histidine-acetate pH 5.0-6.5 buffer via dialysis.
# LCMS method to monitor and determine maleimide hydrolysis. LC-MS analysis was carried out under the following measurement conditions: • LC-MS system: Vanquish Flex UHPLC and Orbitrap Exploris 240 Mass Spectrometer • Column: MAbPac™ RP, 2.1*50 mm, 4 μm, 1,500 Å, Thermo Scientific™ • Column temperature: 80° C. • Mobile phase A: 0.1% formic acid (FA) aqueous solution • Mobile phase B: Acetonitrile solution containing 0.1% formic acid (FA) • Gradient program 1: 25% B-25% B (0 min-2 min), 25% B-50% B (2 min-18 min), 50% B-90% B (18 min-18.1 min), 90% B-90% B (18.1 min-20 min), 90% B-25% B (20 min-20.1 min), 25% B-25% B (20.1 min-25 min) • Gradient program 2 • Injected sample amount: 2 μg • MS parameters: Intact and denaturing MS data were acquired in HMR mode at setting of R=15k and deconvolved using the ReSpect™ algorithm and Sliding Window integration in Thermo Scientific™ BioPharma Finder™ 4.0 software.
# Results for ring opening times measured by the LCMS method described above for monitoring ring hydrolysis are presented in Table 3 as RO T1/2 (h) (i.e., the time, in hours, for 50% of the maleimide rings to open).
# Conjugator-antibody conjugate maleimide hydrolysis (ring opening) kinetics are presented in FIGS. 1A-1L, Table 3 (for pH 7.0 reaction conditions, hydrolysis T1/2), and Table 5. The data in Table 5 was generated by the LCMS method described above and includes the time, in hours, for the maleimide ring to open in more than 95% of the conjugators, after antibody conjugation (“RO Completed Time (>95%) (h)”). The results for conjugator-antibody conjugate 3-1 indicate that after 24 hours, about 0% of maleimide rings were open; the results for conjugator-antibody conjugate 3-3 indicate that after 24 hours, about 28% of maleimide rings were open.
# [2] = Conjugator-antibody conjugate stability in formulation buffer (pH 5.5 20 mM histidine buffer); settings: pH 5.5, 22 °C
# Method: After the conjugation and hydrolysis steps described above (see “DAR8 antibody drug conjugate/conjugator-antibody conjugate preparation”), conjugator-antibody conjugates were incubated in formulation buffer (pH 5.5 20 mM histidine buffer) or glutathione (GSH) buffer (pH 7.4 or 8.0), […] Hydrolysis status was monitored via reduced LCMS. Results are presented in Table 6, Table 7, and FIGS. 2A-23B.
# [3] = Conjugator-antibody conjugate stability in pH 7.4 and 8.0 buffer with and without GSH;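 also: conjugate hydrolysis tracked by LC-MS analysis of reduced samples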
# [4] = pH 7.0, time for 50% of the maleimide rings to open, read-out: RO T1/2 (converted)
SMILES,"MS DAR ([1]; pH 7, time point 1 h)","RO (%) LC ([1]; pH 7, time point 1 h) [%]","MS DAR ([1]; pH 7, time point 3 h)","RO (%) HC ([1]; pH 7, time point 3 h) [%]","RO (%) LC ([1]; pH 7, time point 3 h) [%]","RO (%) Total ([1]; pH 7, time point 3 h) [%]","MS DAR ([1]; pH 7, time point 5 h)","RO (%) HC ([1]; pH 7, time point 5 h) [%]","RO (%) LC ([1]; pH 7, time point 5 h) [%]","RO (%) Total ([1]; pH 7, time point 5 h) [%]","MS DAR ([1]; pH 7, time point 7 h)","RO (%) HC ([1]; pH 7, time point 7 h) [%]","RO (%) LC ([1]; pH 7, time point 7 h) [%]","RO (%) Total ([1]; pH 7, time point 7 h) [%]","MS DAR ([1]; pH 7, time point 24 h)","RO (%) HC ([1]; pH 7, time point 24 h) [%]","RO (%) LC ([1]; pH 7, time point 24 h) [%]","RO (%) Total ([1]; pH 7, time point 24 h) [%]",RO Completed Time (>95%) ([1]; pH 7) [h],MS DAR-T = 0 h [2],further results
NCC(COC(=O)NCCOCCOCCOCCOCCC(=O)O)N1C(=O)C=CC1=O (stereo not drawn) [3-4],7.96,23.19,7.98,88.19,75.33,84.98,7.98,90.01,87.91,89.49,7.98,99.07,95.37,98.15,7.98,99.08,99.66,99.23,7,8.00,"half-life [1, 4]: 1.6 h; RO (%) HC ([1]; pH 7, time point 1 h): 51.56%; RO (%) Total ([1]; pH 7, time point 1 h): 44.47%; MS DAR-T = 168 h ([2]; incubation 168 h): 8.00; Maleimide ring opening ratio (%) at T = 168 h ([2]; incubation 168 h): 98.86%; MS DAR ([3]; incubation 20 h, pH 7.4, 22 °C): 8.00; MS DAR ([3]; incubation 20 h, pH 7.4, 37 °C): 8.00; MS DAR ([3]; incubation 20 h, pH 8.0, 22 °C): 8.00"
CN(C)C(=O)CCOCC(N)CN1C(=O)C=CC1=O (stereo not drawn) [3-7],8.52,28.33,8,79.61,60.08,74.73,8,88.54,77.85,85.87,8,87.98,86.34,87.57,8,90.8,92.99,91.35,>24,8.00,"half-life ([1]; pH 7): 1.7 h; RO (%) HC ([1]; pH 7, time point 1 h): 40.83%; RO (%) Total ([1]; pH 7, time point 1 h): 37.71%; MS DAR-T = 168 h ([2]; incubation 168 h): 8.00; Maleimide ring opening ratio (%) at T = 168 h ([2]; incubation 168 h): 97.99%; MS DAR ([3]; incubation 20 h, pH 7.4, 22 °C): 8.00; MS DAR ([3]; incubation 20 h, pH 7.4, 37 °C): 8.00; MS DAR ([3]; incubation 20 h, pH 8.0, 22 °C): 8.00"
CN(C)C(=O)CN(C)C(=O)OCC(CN)N1C(=O)C=CC1=O (stereo not drawn) [3-8],7.74,44.94,7.88,96.11,80.15,92.12,7.78,99.49,92.96,97.85,7.8,99.47,94.42,98.21,7.8,99.55,95.48,98.53,5,7.76,"half-life [1, 4]: 1.6 h; MS DAR-T = 168 h ([2]; incubation 168 h): 7.80; Maleimide ring opening ratio (%) at T = 168 h ([2]; incubation 168 h): 95.50%; MS DAR ([3]; incubation 20 h, pH 7.4, 22 °C): 7.92; MS DAR ([3]; incubation 20 h, pH 7.4, 37 °C): 7.92; MS DAR ([3]; incubation 20 h, pH 8.0, 22 °C): 7.88"
CC(C)N(CCC(=O)N(C)C)C(=O)OCC(CN)N1C(=O)C=CC1=O (stereo not drawn) [3-9],7.94,40.06,7.94,99.84,79.93,94.86,7.96,99.07,89.36,96.64,7.96,100,93.56,98.39,7.96,100,99.17,99.79,5,8.00,"half-life [1, 4]: 0.8 h; RO (%) HC ([1]; pH 7, time point 1 h): 66.09%; RO (%) Total ([1]; pH 7, time point 1 h): 59.58%; MS DAR-T = 168 h ([2]; incubation time printed 240 h): 8.00; Maleimide ring opening ratio (%) at T = 168 h ([2]; incubation time printed 240 h): 98.51%; MS DAR ([3]; incubation 20 h, pH 7.4, 22 °C): 8.00; MS DAR ([3]; incubation 20 h, pH 7.4, 37 °C): 8.00; MS DAR ([3]; incubation 20 h, pH 8.0, 22 °C): 8.00"
CN(C)C(=O)CCCCC(CN)N1C(=O)C=CC1=O (stereo not drawn) [3-10],8,21.63,8,76.09,49.46,69.43,8,91.86,64.05,84.91,8,98.26,83.47,94.56,8,99.52,100,99.64,7,8.00,"half-life [1, 4]: 2 h; RO (%) HC ([1]; pH 7, time point 1 h): 42.51%; RO (%) Total ([1]; pH 7, time point 1 h): 37.29%; MS DAR-T = 168 h ([2]; incubation 168 h): 8.00; Maleimide ring opening ratio (%) at T = 168 h ([2]; incubation 168 h): 98.38%; MS DAR ([3]; incubation 20 h, pH 7.4, 22 °C): 8.00; MS DAR ([3]; incubation 20 h, pH 7.4, 37 °C): 8.00; MS DAR ([3]; incubation 20 h, pH 8.0, 22 °C): 8.00"
CN(C)C(=O)CCNC(=O)NCC(CN)N1C(=O)C=CC1=O (stereo not drawn) [3-12],8,27.31,8,89.82,74.84,86.08,8,95.33,78.30,91.07,8,99.07,88.53,96.44,8,99.64,95.87,98.70,7,8.02,"half-life [1, 4]: 1.6 h; RO (%) HC ([1]; pH 7, time point 1 h): 45.46%; RO (%) Total ([1]; pH 7, time point 1 h): 40.92%; MS DAR-T = 168 h ([2]; incubation 168 h): 8.02; Maleimide ring opening ratio (%) at T = 168 h ([2]; incubation 168 h): 97.83%; MS DAR ([3]; incubation 24 h, pH 7.4, 22 °C): 8.00; MS DAR ([3]; incubation 24 h, pH 7.4, 37 °C): 8.00; MS DAR ([3]; incubation 24 h, pH 8.0, 22 °C): 8.00"
CN(C)C(=O)CCNC(=O)OCCC(CN)N1C(=O)C=CC1=O (stereo not drawn) [3-13],8,21.50,8,92.96,64.20,85.77,8,100.00,74.30,93.58,8,99.68,93.68,98.18,8,100.00,94.99,98.75,7,7.84,"half-life ([1]; pH 7): 1.7 h; RO (%) HC ([1]; pH 7, time point 1 h): 43.63%; RO (%) Total ([1]; pH 7, time point 1 h): 38.10%; MS DAR-T = 168 h ([2]; incubation 168 h): 7.88; Maleimide ring opening ratio (%) at T = 168 h ([2]; incubation 168 h): 98.33%; MS DAR ([3]; incubation 24 h, pH 7.4, 22 °C): 7.90; MS DAR ([3]; incubation 24 h, pH 7.4, 37 °C): 7.90; MS DAR ([3]; incubation 24 h, pH 8.0, 22 °C): 7.90"
CN(C)C(=O)CCOCCC(CN)N1C(=O)C=CC1=O (stereo not drawn) [3-14],8,17.39,8,67.87,32.97,59.15,8,85.71,77.46,83.65,8,95.45,72.00,89.59,8,99.69,95.83,98.73,24,8.00,"half-life [1, 4]: 2 h; RO (%) HC ([1]; pH 7, time point 1 h): 46.79%; RO (%) Total ([1]; pH 7, time point 1 h): 39.44%; MS DAR-T = 168 h ([2]; incubation 168 h): 8.00; Maleimide ring opening ratio (%) at T = 168 h ([2]; incubation 168 h): 97.15%; MS DAR ([3]; incubation 24 h, pH 7.4, 22 °C): 7.98; MS DAR ([3]; incubation 24 h, pH 7.4, 37 °C): 8.00; MS DAR ([3]; incubation 24 h, pH 8.0, 22 °C): 8.00"
